Biological target: alcohol dehydrogenase (ADH)

B1: CryS96 (αB-crystallin peptide fused with ELP S96) (protein)
chain: GDRFSVNLDVKHFSPEELKVKGVPGSGVPGSGVPGSGVPGSGVPGSGVPGSGVPGSGVPGSGVPGSGVPGSGVPGSGVPGSGVPGSGVPGSGVPGSGVPGSGVPGSGVPGSGVPGSGVPGSGVPGSGVPGSGVPGSGVPGSGVPGSGVPGSGVPGSGVPGSGVPGSGVPGSGVPGSGVPGSGVPGSGVPGSGVPGSGVPGSGVPGSGVPGSGVPGSGVPGSGVPGSGVPGSGVPGSGVPGSGVPGSGVPGSGVPGSGVPGSGVPGSGVPGSGVPGSGVPGSGVPGSGVPGSGVPGSGVPGSGVPGSGVPGSGVPGSGVPGSGVPGSGVPGSGVPGSGVPGSGVPGSGVPGSGVPGSGVPGSGVPGSGVPGSGVPGSGVPGSGVPGSGVPGSGVPGSGVPGSGVPGSGVPGSGVPGSGVPGSGVPGSGVPGSGVPGSGVPGSGVPGSGVPGSGVPGSGVPGSGVPGSGVPGSGVPGSGVPGSGVPGSGVPGSGVPGSGVPGSGY
In the case of B1, the ADH aggregation (optical density at 360 nm, 48° C., 2 h) (% decrease in ADH aggregation) is reported as 61.

— US12655198B2
